In US20070128678A1:

T1: PknB1-279 (His-tagged catalytic kinase domain of Mycobacterium tuberculosis Ser/Thr protein kinase PknB, aa 1-279), P9WI81
T1 chain: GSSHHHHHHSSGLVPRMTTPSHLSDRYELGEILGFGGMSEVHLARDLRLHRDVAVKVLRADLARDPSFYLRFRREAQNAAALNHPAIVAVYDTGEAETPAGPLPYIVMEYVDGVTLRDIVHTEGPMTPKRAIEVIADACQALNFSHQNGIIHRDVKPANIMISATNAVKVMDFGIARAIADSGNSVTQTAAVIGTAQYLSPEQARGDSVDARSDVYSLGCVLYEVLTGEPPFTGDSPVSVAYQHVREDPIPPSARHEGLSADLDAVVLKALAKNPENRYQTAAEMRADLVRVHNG


How the values were obtained:
[1] = molecular target: PknB1-279 (His-tagged catalytic kinase domain of Mycobacterium tuberculosis Ser/Thr protein kinase PknB, aa 1-279) (Mycobacterium tuberculosis) (UniProt P9WI81); test: cell-based or functional assay
[2] = molecular target: T1, PknB1-279 (His-tagged catalytic kinase …)

Molecule	MALDI-TOF mass of PknB1-279 after phosphatase treatment (phosphate groups removed) (phosphate groups) [1]	dephosphorylation of autophosphorylated [33P]-PknB1-279 by PstP (SDS-PAGE, autoradiography, band shift) [2]	kinase activity of PknB on MBP with thio-γATP after preincubation with PstP [2]
PstP1-240 (His-tagged catalytic domain of Mycobacterium tuberculosis Ser/Thr protein phosphatase PstP, aa 1-240) (from UniProt P9WHW4 1-240) (enzyme)	3		
PstP1-240 (His-tagged catalytic domain of Mycobacterium tuberculosis Ser/Thr protein phosphatase PstP, aa 1-240) (protein) MARVTLVLRYAARSDRGLVRANNEDSVYAGARLLALADGMGGHAAGEVASQLVIAALAHLDDDEPGGDLLAKLDAAVRAGNSAIAAQVEMEPDLEGMGTTLTAILFAGNRLGLVHIGDSRGYLLRDGELTQITKDDTFVQTLVDEGRITPEEAHSHPQRSLIMRALTGHEVEPTLTMREARAGDRYLLCSDGLSDPVSDETILEALQIPEVAESAHRLIELALRGGGPDNVTVVVADVVD		PstP is capable of dephosphorylating PknB	prior dephosphorylation of PknB by PstP inhibits kinase activity on MBP
